Biological target: T1, KDR ectodomain-IgG fusion protein (UniProt P35968 20-764, limits assumed)
T1 construct: extracellular domain; also called KDR-Ig ectodomain; not shown: IgG portion of the fusion
Experiment: electrochemiluminescent saturation binding; VEGF captured by a non-neutralizing anti-VEGF mAb, KDR-Ig ectodomain titrated, detected with tagged anti-KDR

T1 sequence (P35968 20-764 limits assumed): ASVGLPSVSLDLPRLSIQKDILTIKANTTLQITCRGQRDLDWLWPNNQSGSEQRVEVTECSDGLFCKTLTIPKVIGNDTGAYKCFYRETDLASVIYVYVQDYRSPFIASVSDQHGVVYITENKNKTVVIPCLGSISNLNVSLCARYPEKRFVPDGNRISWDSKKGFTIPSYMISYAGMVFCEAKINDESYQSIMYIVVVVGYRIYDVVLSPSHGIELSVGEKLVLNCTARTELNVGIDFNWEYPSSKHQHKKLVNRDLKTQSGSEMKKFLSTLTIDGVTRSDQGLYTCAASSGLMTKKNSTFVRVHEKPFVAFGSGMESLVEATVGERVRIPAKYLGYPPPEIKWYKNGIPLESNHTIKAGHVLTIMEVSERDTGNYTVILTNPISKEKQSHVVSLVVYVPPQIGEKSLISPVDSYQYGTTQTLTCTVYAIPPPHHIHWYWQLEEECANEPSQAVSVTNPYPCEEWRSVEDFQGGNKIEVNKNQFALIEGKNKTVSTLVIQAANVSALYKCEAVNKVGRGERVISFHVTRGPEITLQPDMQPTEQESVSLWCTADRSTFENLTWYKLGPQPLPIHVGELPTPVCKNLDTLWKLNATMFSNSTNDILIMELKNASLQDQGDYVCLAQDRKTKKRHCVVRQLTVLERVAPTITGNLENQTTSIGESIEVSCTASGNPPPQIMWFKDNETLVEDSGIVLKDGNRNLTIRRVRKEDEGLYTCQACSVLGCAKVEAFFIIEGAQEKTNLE

B1: VEGF165 3S (human VEGF165 R123E/R124E/R159E) (ligand)
chain: APMAEGGGQNHHEVVKFMDVYQRSYCHPIETLVDIFQEYPDEIEYIFKPSCVPLMRCGGCCNDEGLECVPTEESNITMQIMRIKPHQGQHIGEMSFLQHNKCECRPKKDRARQENPCGPCSEEEKHLFVQDPQTCKCSCKNTDSRCKARQLELNERTCECDKPRR
notes: Secreted into conditioned media by 293/KDR transfectants, made with the native signal peptide; also called VEGF 3S
Work on B1 yielded a Kd of roughly 19 pM.
